Source: article PMC5286394, “Architecture of the yeast Elongator complex” (EMBO Reports, 2016)

Experiments:
[1] = target: T1, untagged full-length Elp1 (S. cerevisiae, UniProt Q06706 1-1349); assay: pull-down; GST pull-down: 20 μg GST-tagged protein and increasing amounts of untagged partner with glutathione Sepharose, 2 h at 4°C, 20 mM Tris pH 7.5, 150 mM NaCl, 5 mM DTT, 0.1% Tween-20; five washes; SDS–PAGE, Coomassie; conditions: both partners purified
T1 construct: Elp1, Elongator subunit 1, S. cerevisiae; source: E. coli BL21 pSarRare, purified (NiNTA, TEV cleavage, second NiNTA, gel filtration); not shown: His6, N-terminal, cleaved; GST, N-terminal, cleaved
T1 sequence (looked up): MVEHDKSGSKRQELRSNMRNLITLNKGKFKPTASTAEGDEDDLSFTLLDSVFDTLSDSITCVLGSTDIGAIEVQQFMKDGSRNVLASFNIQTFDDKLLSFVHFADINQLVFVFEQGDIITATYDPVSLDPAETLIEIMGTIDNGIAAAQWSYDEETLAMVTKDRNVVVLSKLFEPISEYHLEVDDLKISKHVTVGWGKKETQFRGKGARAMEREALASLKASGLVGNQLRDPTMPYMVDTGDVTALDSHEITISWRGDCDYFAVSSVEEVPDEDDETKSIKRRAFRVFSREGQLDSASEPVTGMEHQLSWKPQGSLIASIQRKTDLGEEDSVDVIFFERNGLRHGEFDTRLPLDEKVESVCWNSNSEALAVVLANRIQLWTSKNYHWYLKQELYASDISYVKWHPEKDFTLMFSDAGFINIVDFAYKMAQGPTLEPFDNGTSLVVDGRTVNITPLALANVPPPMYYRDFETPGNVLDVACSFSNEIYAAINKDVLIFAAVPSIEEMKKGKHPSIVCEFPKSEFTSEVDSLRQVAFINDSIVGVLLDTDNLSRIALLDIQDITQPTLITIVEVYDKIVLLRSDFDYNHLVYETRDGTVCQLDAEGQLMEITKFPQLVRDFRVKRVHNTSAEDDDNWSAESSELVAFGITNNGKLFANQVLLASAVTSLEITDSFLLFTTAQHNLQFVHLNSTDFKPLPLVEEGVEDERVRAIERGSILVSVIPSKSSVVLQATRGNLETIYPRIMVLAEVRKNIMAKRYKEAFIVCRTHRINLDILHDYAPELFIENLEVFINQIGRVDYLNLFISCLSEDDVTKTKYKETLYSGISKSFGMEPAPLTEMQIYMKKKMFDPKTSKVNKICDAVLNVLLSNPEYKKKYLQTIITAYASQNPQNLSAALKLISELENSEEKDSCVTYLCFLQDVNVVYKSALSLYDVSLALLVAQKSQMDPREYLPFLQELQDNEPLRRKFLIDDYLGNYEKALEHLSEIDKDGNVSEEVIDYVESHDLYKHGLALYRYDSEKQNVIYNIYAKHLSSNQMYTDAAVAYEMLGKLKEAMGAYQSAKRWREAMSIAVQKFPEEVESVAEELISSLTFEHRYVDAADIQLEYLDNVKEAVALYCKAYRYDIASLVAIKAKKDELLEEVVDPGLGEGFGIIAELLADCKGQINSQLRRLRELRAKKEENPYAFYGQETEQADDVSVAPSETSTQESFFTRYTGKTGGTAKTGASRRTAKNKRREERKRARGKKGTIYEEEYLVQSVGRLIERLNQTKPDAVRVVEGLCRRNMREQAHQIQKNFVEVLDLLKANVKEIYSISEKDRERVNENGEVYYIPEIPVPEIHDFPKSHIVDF

[2] = target: the molecule itself; assay: negative-stain EM reconstruction with integrative modelling (EM map and cross-links); Elp123 sub-complex from Elp1-TAP purification, 0.01% glutaraldehyde, gel filtration; 1% uranyl acetate; C2 symmetry, 27 Å
[3] = target: T2, Elp123 sub-complex within the endogenous holoElongator (Elp6-TAP purification) (S. cerevisiae (endogenous in strain …, UniProt Q06706 1-1349; P42935 1-788; Q02908 1-557); assay: negative-stain EM reconstruction with integrative modelling (EM map and cross-links); holoElongator from Elp6-TAP purification, 0.01% glutaraldehyde, gel filtration; 1% uranyl acetate; 31 Å; conditions: both partners purified
T2 construct: Elp1, S. cerevisiae, endogenous protein; Elp2, S. cerevisiae, endogenous protein; Elp3, S. cerevisiae, endogenous protein; copies: 2 + 2 + 2
T2 sequence (P42935 whole entry, one chain of several): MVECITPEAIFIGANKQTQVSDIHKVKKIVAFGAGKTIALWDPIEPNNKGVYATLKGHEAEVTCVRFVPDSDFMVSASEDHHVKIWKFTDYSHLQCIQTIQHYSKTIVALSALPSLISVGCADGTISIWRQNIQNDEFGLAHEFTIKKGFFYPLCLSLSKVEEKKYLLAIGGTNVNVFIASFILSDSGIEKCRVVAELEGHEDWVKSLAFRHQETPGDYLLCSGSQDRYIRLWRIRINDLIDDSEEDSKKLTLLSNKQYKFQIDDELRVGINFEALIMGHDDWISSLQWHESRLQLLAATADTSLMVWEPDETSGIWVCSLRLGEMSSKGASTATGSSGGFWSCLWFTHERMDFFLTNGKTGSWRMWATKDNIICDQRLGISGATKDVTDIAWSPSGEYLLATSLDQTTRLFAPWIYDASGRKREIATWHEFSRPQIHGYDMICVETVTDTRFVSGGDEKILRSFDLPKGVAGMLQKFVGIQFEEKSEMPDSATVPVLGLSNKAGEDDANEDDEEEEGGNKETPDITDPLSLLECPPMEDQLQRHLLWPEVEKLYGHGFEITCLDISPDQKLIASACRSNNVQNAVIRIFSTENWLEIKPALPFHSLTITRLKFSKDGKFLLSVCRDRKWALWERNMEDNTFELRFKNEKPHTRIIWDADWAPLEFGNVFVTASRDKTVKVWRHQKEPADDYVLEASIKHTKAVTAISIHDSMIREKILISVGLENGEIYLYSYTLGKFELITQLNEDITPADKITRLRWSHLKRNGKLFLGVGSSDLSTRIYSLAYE

B1: GST-tagged Elp3 KAT domain (aa348–557) (domain or fragment, S. cerevisiae, UniProt Q02908 348-557, looked up)
chain: SYSANALVDLVARILALVPPWTRIYRVQRDIPMPLVTSGVDNGNLRELALARMKDLGTTCRDVRTREVGIQEVHHKVQPDQVELIRRDYYANGGWETFLSYEDPKKDILIGLLRLRKASKKYTYRKEFTSQRTSIVRELHVYGSVVPLHSRDPRKFQHQGFGTLLMEEAERIAKEEHGSEKISVISGVGVRNYYGKLGYELDGPYMSKRI
notes: Elp3, S. cerevisiae, lysine acetyl transferase (KAT) domain, residues 348–557; also called KAT domain of Elp3; source: E. coli BL21 pSarRare, purified (NiNTA, gel filtration); not shown: His6, N-terminal, kept; GST, N-terminal, kept
binding result [1]: binds

B2: endogenously TAP-tagged Elp1 (natural protein, UniProt Q06706 1-1349, looked up)
chain: T1 sequence (looked up)
notes: Elp1, S. cerevisiae, endogenous protein with TAP tag (Elp1-TAP::TRP1); also called Elp1-TAP
stoichiometry N [2]: 2

B3: hetero-hexameric Elp456 ring within the endogenous holoElongator (Elp6-TAP purification) (complex)
chain 1: MSFRKRGEILNDRGSGLRGPLLRGPPRTSSTPLRTGNRRAPGNVPLSDTTARLKKLNIADESKTKMGLDSSHVGVRPSPATSQPTTSTGSADLDSILGHMGLPLGNSVLVEEQSTTEFHSILGKLFAAQGIVHNRISDSSADKTRNGDTHVIVLSLNQMFAKELPGIYKGSRKQMKKNLISEEESKVTVQNLNETQRSTPSRYKDLKIAWKYKLADEKRLGSPDRDDIQQNSEYKDYNHQFDITTRLMPAPIASELTFIAPTQPVSTILSQIEQTIKRNDKKLIRIVIPSLLHPAMYPPKMFESSEIIGLMHGVRSLVKKYYERVVLFASISIDIITPPLLVLLRNMFDSVINLEPFNQEMTEFLERVYKSQPGKIQHGLVHILKLPVFTDRGEMRVLKSEWAFKNGRKKFEIEQWGIPVDDAEGSAASEQSHSHSHSDEISHNIPAKKTKISLDY
chain 2: MASSSHNPVILLKRILSLTESSPFILCLDSIAQTSYKLIQEFVHQSKSKGNEYPIVYISFETVNKPSYCTQFIDATQMDFVHLVKQIISYLPAATATQAKKHMVIIDSLNYISTEYITRFLSEIASPHCTMVATYHKDIKDENRTVIPDWNNNYPDKLTLLQFMATTIVDIDVVLTGTLDTEEVSELLNEFRIPRGLNNDIFQLRLVNKRKSGRSLEYDFIVNSNTHEYELLSTTKQEEESSSNGLETPEMLQGLTTFNLGTSNKQKLAKDQVALPFLEAQSFGQGGAIVYEYEKDDDYDEEDPYEDPF
chain 3: MGSVQRQDLVLFSDQSVLPAHFFQDSNSHNLFFITHQSCTQPLWMINALVETHVLGSPSSLNESSSSMLPSSTRSHAVLASFIHEQNYFTNSLNKLKIPSNNYNVLDFLSDFIVNNIHNKPRDKILSDVLAKFSAAIQNNPTDTIVIIEQPELLLSLVSGLTCSELNNKFITPLLRQCKVLIIVSNSDIFNIDEYDASVHSSNLQNFYKSSFIKSMINLNLNPLKTGFAKDVTGSLHVCRGGAPIATSNTSLHVVENEYLYLNEKESTKLFYR
notes: Elp4, S. cerevisiae, endogenous protein; Elp5, S. cerevisiae, endogenous protein; Elp6, S. cerevisiae, endogenous protein with TAP tag; Only part of the TAP tag is left after TEV elution; copies: 2 + 2 + 2
stoichiometry N [3]: 1
